Columns and labels:
PapD-PapG complex = target: T1, PapD-PapG complex (Escherichia coli, UniProt P15319); assay: Reconstitution assay: restoration of PapD-PapG complex from reduced, denatured PapG; assay type: biochemical, E. coli; settings: PapD incubated with increasing amounts of peptide
T1 construct: made in house
T1 sequence (P15319 22-239): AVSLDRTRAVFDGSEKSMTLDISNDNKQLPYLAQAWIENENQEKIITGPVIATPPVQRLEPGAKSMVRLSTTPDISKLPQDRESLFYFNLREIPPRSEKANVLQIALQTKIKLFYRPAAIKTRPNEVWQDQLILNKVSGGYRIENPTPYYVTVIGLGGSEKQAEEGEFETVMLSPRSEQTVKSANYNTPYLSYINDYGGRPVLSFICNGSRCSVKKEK
Experimental: B: PapD incubated with the G1'-19'WT, G1'-16'WT, K1'-19'WT, and G2'-21'amide was added to reduced, denatured PapD-PapG and the amount of PapD-PapG complex restored in each sample was quantitated as described in example 2. The % inhibition represents the amount of the PapD-PapG complex restored with peptide-treated PapD compared to the amount of PapD-PapG complex restored with untreated PapD. The graph represent the average of 4 experiments. PapD and PapD-PapG complex were prepared as described in F. Lindberg et al, J. Bacteriol. 171, 6052 (1989) and S. J. Hultgren et al., Proc. Natl. Acad. Sci. U.S.A. 86, 4357 (1989).
FIG. 7: Ability of PapD Arg-8, Lys-112 and Thr-7 mutants to bind PapG and restore the PapD-PapG complex in vitro. 0.4 μg of PapD-PapG complex was reduced and denatured as described in FIG. 2B. The denatured PapD-PapG complex was then diluted with 0-630 ng purified wild type (WT) or mutant PapD. The amount of PapD-PapG restored in the samples was determined as in FIG. 2B and was graphed as a percentage of the greatest amount of PapD-PapG restored. The values graphed represent the average of 3 experiments. Wild type and mutant PapD and the PapD-PapG complex were purified as described in F. Lindberg et al, J. Bacteriol. 171, 6052 (1989) and S. J. Hultgren et al., Proc. Natl. Acad. Sci. U.S.A. 86, 4357 (1989).
As described in Kuehn et al., Proc. Natl. Acad. Sci. U.S.A. 88, 10586 (1991), native PapD is able to bind to reduced, denatured PapG and restore the PapD-PapG complex in vitro. This reconstitution assay was used to determine the ability of the peptides to inhibit PapD activity in vitro.
The PapD-peptide solution was then added to the reduced, denatured PapD-PapG, incubated at 25° C. for 10 min, and applied to an IEF 3-9 gel (Pharmacia). The amount of PapD-PapG restored in each sample was quantitated by densitometry of the silver stained IEF band corresponding to the pI of the DG complex.

PapD = target: T2, PapD (Escherichia coli, UniProt P15319); assay: ELISA: PapD binding to peptides coated on microtiter wells; parameters: made in house; species or system E. coli; settings: peptide coated on microtiter wells, ELISA
T2 sequence (P15319 22-239): T1 sequence (P15319 22-239)
Experimental: The residues in the peptides were numbered starting with the carboxyl terminal residue as 1, and ending with the amino terminal residue. Peptides were also synthesized which deviated in length (G1'-16'WT, G1'-11'WT, G1'-7'WT) or sequence (G2'-21'amide, G1'-19'SV, G1'-19'NH2) from the wild type PapG carboxyl terminal sequence. Using an enzyme-linked immunosorbent assay (ELISA), we tested the ability of PapD to bind to each peptide coated on wells of microtiter plates:
5 mg/ml stock solutions of peptides in water or 50% acetic acid were diluted to a concentration of 2.5 pmol/50 μl in PBS. 50 μl of the peptide solution was coated overnight onto microtiter wells (Nunc-Immuno Plate Maxisorp) at 4° C. The solutions in the plates were discarded, and the wells were blocked with 200 μl 3% bovine serum albumin (BSA, Sigma) in PBS (120 mM NaCl/2.7 mM KCl/10 mM phosphate buffer salts, pH 7.4) for 2 hours at 25° C. The plates were washed vigorously 3 times with PBS and incubated with 50 μl of the indicated amount of purified PapD (Lindberg et al, 1989). After 3 washes with PBS, the wells were incubated with a 1:500 dilution of anti-PapD rabbit antiserum (Lindberg et al, 1989) in 3% BSA/PBS for 45 min. at 25° C. After 3 washes with PBS, the wells were incubated with a 1:1000 dilution of goat anti-rabbit IgG coupled to alkaline phosphatase (Sigma) in 3% BSA/PBS for 45 min. at 25° C. Following 3 washes with PBS and 3 washes with developing buffer (10 mM diethanolamine pH 9.5, 0,5 mM MgCl2), 50 μl filtered p-nitrophenyl phosphate substrate (Sigma) in developing buffer (10 mg/ml) was added. The absorbance at 405 nm was read after 60 min of incubation in the dark at 25° C.

Q: With “NH2--KPGELSGSMTMVLSFP--COOH (H-KPGELSGSMTMVLSFP-OH) [G1'-16'WT]” as the substance, how does the “inhibition of restoration of the PapD-PapG complex by PapD” value (PapD-PapG complex) read?
A: inhibit restoration

Q: What about the “binding of PapD to immobilized peptide” value (PapD) of the same substance?
A: binds

— patent US6001823A, “Treatment or prophylaxis of diseases caused by pilus-forming bacteria” (priority 1995, dated 1999)
